In patent US20090186027A1 (RAMOT AT TEL AVIV UNIVERSITY, published 2009):

Target: T1, β-amyloid peptide 1-40 (UniProt P05067 672-711)
T1 construct: domain: beta amyloid peptide 1-40; Residues 1-40 are counted on Aβ, not on the APP entry; Coated after overnight incubation at 37 C (ELISA) or pre-aggregated for a week (ThT assay); also called Aβp 1-40; AβP 1-40
Experiment: ELISA, constant 10 µM Aβ 1-40 coated, 3.125-25 µM antibody; reference 37L
Description: Wells were washed and blocked with 3% milk powder in PBS for 1 hr at 37° C. […] The rest of the ELISA assay was performed as described above.

B1: 37H (single domain antibody, heavy chain variable domain of scFv RCK37) (other)
VH: MAHVQFVQSGGDLVKPGGSLKLSCAASGFTFSSYGMSWVRQTPDKRLEWVATISSGGSYTYYPDSVKGRFTISRDNAKNTLYLQMSSLKSEDTAMYYCARHNYGSSYPYAMDYWGQGTPVTVSA
notes: also called 37H nanobody; nanobody 37H; not shown: C-terminal His tag from the pET28/pET21 vector
fold stronger binding than 37L: 5 times
